{"source": "paper PMC8326117", "about": "(International Journal of Biological Sciences, 2021)", "biological_target": "SARS-CoV-2 S-protein RBD (SARS-CoV-2, UniProt P0DTC2)", "assay": "SPR", "conditions": "both partners purified"}
{"binder": "KKKKKKDKFNHEAEDLFY (also called 6K-modified AYn1 peptide)", "note": "[S-protein neutralizing peptide AYn1]", "values": [{"measurement": "Kd", "result": 95.6, "unit": "nM"}]}
